From patent publication US20210253725A1 (BIONTECH, published 2021)

T1: CD27 expressed on the cell surface of HT1080_CD27 cells (human, UniProt P26842 20-260)
T1 sequence (looked up): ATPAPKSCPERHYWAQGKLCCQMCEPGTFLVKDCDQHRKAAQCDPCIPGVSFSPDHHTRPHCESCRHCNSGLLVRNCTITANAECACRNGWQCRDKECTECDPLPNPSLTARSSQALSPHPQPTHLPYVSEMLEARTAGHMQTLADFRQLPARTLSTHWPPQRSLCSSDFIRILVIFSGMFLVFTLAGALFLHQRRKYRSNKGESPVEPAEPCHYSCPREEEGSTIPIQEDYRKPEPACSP

T2: CD27 protein (His-tagged, Sino Biological Inc. 10039-H08B1) (human, UniProt P26842 20-192)
T2 construct: bought protein coated on ELISA plates; also called TNFRSF7; not shown: His tag
T2 sequence (looked up): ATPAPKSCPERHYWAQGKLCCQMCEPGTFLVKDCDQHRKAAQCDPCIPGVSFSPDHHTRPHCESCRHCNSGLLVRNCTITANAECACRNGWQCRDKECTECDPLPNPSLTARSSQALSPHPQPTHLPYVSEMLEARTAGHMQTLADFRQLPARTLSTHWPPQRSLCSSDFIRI

T3: CD134 expressed on the cell surface of HT1080_OX40 cells (human, UniProt P43489 29-277)
T3 sequence (looked up): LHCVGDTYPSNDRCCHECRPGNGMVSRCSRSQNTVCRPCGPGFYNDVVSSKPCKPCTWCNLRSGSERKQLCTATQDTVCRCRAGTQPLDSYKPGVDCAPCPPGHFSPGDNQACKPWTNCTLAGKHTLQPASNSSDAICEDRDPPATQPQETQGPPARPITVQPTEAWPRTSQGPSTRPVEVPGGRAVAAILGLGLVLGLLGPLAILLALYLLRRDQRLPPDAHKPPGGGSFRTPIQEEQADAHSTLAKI

T4: CD134 protein (His-tagged, Sino Biological Inc. 10481-H08H) (human, UniProt P43489 29-216)
T4 construct: bought protein coated on ELISA plates; also called OX40; TNFRSF4; not shown: His tag
T4 sequence (looked up): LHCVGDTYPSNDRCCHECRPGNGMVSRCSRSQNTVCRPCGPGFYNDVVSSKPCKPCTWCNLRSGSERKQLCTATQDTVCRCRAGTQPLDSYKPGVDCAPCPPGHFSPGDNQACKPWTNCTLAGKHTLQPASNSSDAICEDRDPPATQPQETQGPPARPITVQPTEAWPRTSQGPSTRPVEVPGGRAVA


Columns and labels:
[1] = target: T1, CD27 expressed on the cell surface of …; assay: cell-based or functional assay
[2] = target: T1, CD27 expressed on the cell surface of …; assay: HT1080_CD27 cells, imaging; further: test concentration or dose not given here
[3] = target: T1, CD27 expressed on the cell surface of …; assay: cell-based or functional assay; remark: listed apart in the source
[4] = target: T2, CD27 protein (His-tagged, Sino …); assay: ELISA, coated His-tagged CD27; further: test concentration or dose not given here
[5] = target: T3, CD134 expressed on the cell surface of …; assay: cell-based or functional assay
[6] = target: T3, CD134 expressed on the cell surface of …; assay: HT1080_OX40 cells, imaging; further: test concentration or dose not given here
[7] = target: T3, CD134 expressed on the cell surface of …; assay: cell-based or functional assay; remark: listed apart in the source
[8] = target: T4, CD134 protein (His-tagged, Sino …); assay: ELISA, coated His-tagged CD134; further: test concentration or dose not given here
Wherever Functional assay Cross-linked by F(ab′)2 fragment IL-8 is given: test concentration or dose not given here.
Wherever Functional assay IL-8 is given: test concentration or dose not given here.

Row | Binder | EC 50 (IL-8 release, cross-linked) [1] | Cellular binding assay [RFU] [2] | Functional assay Cross-linked by F(ab′)2 fragment IL-8 [3] | Functional assay IL-8 [3] | ELISA [abs. corr.] [4] | Functional assay Cross-linked by F(ab′)2 fragment IL-8 [5] | Functional assay IL-8 [5] | Cellular binding assay [RFU] [6] | EC 50 (IL-8 release, cross-linked) [7] | ELISA [abs. corr.] [8]
1 | P018.S.08.A.G02 (antibody, V domains shown) VH: QSVEESGGRLVTPGTPLTLTCTVSGFSLSTYAMSWVRQAPGKGLEWIGMNTRSGIIYYASWAKGRFTISKTSTTVHLKITSPTTEDTATYFCARDLYADVSGYYLGLWGPGTLVTVSS VL: AQVLTQTPSSVSAAVGGTVTINCQASQSLYNNKNLAWYQQKPGQPPKLLIYYASTLASGVSSRFKGSGSGTQFTLTISDLESDDAATYYCQGEFICSSADCVVFGGGTAVVVK | 1.94 µg/mL | – | – | – | – | – | – | – | – | –
2 | P018.S.05.A.F05 (as anti-CD27 antibody) (antibody, V domains shown, V regions on human Ig constant parts; also called AB27_92) VH: QSVEESGGRLVTPGTPLTLTCTVSGFSLSNYYMTWVRQAPGKGLEYIGIIGSGVSTYYANWAKGRFTISKASSTTVDLKMTSPTTEDTATYFCARDMYVGNWGDWGLWGQGTLVTVSS VL: AYDMTQTPASVEVAVGGTVTIKCQASQSISNNLNWYQQKPGQPPKLLIYSVSTLASGVPSRFKGSGSGTDYTLTISGVESVDAATYYCQQDYRIGDLDSAFGGGTEVVVK | 0.376 µg/mL | 11 RFU | 2.21 abs. corr. | 0.189 abs. corr. | 2.31 abs. corr. | – | – | – | – | –
3 | P018.S.09.A.A02 (antibody, V domains shown, V regions on human Ig constant parts; also called AB27_143) VH: QSVEESGGRLVTPGTPLTLTCTASGFSLSNFYMSWVRQAPGKGLEWIGIISTGGSAYYASWAKGRFTSSKTSTTVDLQITSPTTEDTATYFCARGSGTDGAWLYYGIDLWGPGTLVTVSS VL: DVVMTQTPASVEAAVGGTVTIKCQASENIGHALAWYQQKPGQPPKLLIYRTSTLASGVPSRFSGSGSGTQFSLTISDLDSADAATYFCQINYGGGSGGYFAFGGGTEVVVK | 0.144 µg/mL | 155 RFU | 2.46 abs. corr. | 0.839 abs. corr. | 2.95 abs. corr. | – | – | – | – | –
4 | P018.S.10.A.A03 (antibody, V domains shown, V regions on human Ig constant parts; also called AB27_163) VH: QSLEESGGRLVTPGTPLTLTCTVSGIDLSSYAMGWVRQAPGKGLEWIGTISTISNTYYASWANGRFTISKTSTTVDLKMTSLTASDTATYFCARGASNTINDYFNLWGQGTLVTVSS VL: DIVMTQTPASVSEPVGGTVTIKCQASQSVGNYLAWYQQKPGQPPKLLIYDASNLASGVSSRFKGSGFATEFILTISDLESTDAATYYCHSYVYSSGNVYNGFGGGTEVVVK | 0.513 µg/mL | 198 RFU | 2.06 abs. corr. | 1.02 abs. corr. | 2.81 abs. corr. | – | – | – | – | –
5 | P018.S.04.A.G05 (antibody, V domains shown, V regions on human Ig constant parts; also called AB134_14) VH: QSVEESGGRLVTPGTPLTLTCTVSGFSLSTYYMSWVRQAPGKSLEWIGCIHGDDGSTWYASWVQGRFTISKASTTVDLQIASPTTEDTATYFCARGLPYWPNDGDFNLWGQGTLVTVSS VL: TQVLTQTPSPVSAAVGGTVSISCQSSQSVYNNNWLSWFQQKPGQPPKLLVYGASTLASGVPSRFKGSGSGTQFTLTISDLESDDAATYYCAGGYYTTSDNGFGGGTEVVVK | – | – | – | – | – | 2.41 abs. corr. | -0.022 abs. corr. | 451 RFU | 0.669 µg/mL | 2.87 abs. corr.
6 | P018.S.01.A.H06 (antibody, V domains shown) VH: QEQLKESGGRLVKPDETLTITCTASGFSLSRYDMSWVRQAPGKGLEWIGSIWSDGDTDYANWAKGRFTISKTSTTVDLKITSPTTEDTATYFCARGYTAWSLWGPGTLVTVSS VL: ALVMTQTPSPVSAAVGGTVTISCQSSESVVGNNALSWFQQKPGQPPKLLNYQASTLASGVSSRFSGSGSGTQFTLTISGVQSDDAATYYCQGTYYSSGWYFAFGGGTEVVVK | 2.35 µg/mL | – | – | – | – | – | – | – | – | –
7 | P018.S.10.A.B03 (antibody, V domains shown, V regions on human Ig constant parts; also called AB27_168) VH: QSLEESGGRLVTPGTPLTLTCTASGFSLSSYDMGWVRQAPGKGLEWIGIISSSGSTYYASWAKGRFTISKTSSTTVDLKMTSLTTEDTATYFCARTSLDGNLWGQGTLVTVSS VL: AFEMTQTPSSVSEPVGGTVTIKCQASQSIYNYLSWYQQKPGQPPKLLIYDASALASGVPSRFKGSGSGTDFTLTISDLESADAATYYCQQDYSVSDVDNSFGGGTEVVVK | 1.94 µg/mL | 19 RFU | 2.07 abs. corr. | -0.032 abs. corr. | 2.24 abs. corr. | – | – | – | – | –
8 | P018.S.09.A.A06 (antibody, V domains shown, V regions on human Ig constant parts; also called AB27_146) VH: QEQLKESGGGLVQPGESLTLTCTASGFSLSSYYMSWVRQAPGKGLEWIGMISTGGSAYYANWARGRFTISRTSTTVDLKVTSLTTEDTATYFCARGWRYEDLWGQGTLVTVSS VL: AQVLTQTPSPVSAAVGSTVTINCQSSQTVYNNNYLAWYQQKPGQPPKLLIYDASNLASGVSSRFSGSGSGTQFTLTISDLESDDAATYYCQGTYYDNAWYHTFGGGTEVVVK | 0.387 µg/mL | 113 RFU | 2.25 abs. corr. | 2.19 abs. corr. | 3.09 abs. corr. | – | – | – | – | –
9 | P018.S.10.A.C02 (antibody, V domains shown, V regions on human Ig constant parts; also called AB27_171) VH: QSVEESGGRLVTPGTPLTLTCTVSGIDLSNYAMSWVRQTPGKGLEWIGAIGIGGNTYYASWAKGRFTISRTSTMVDLKVASPTPEDTATYFCARHAGAGVVNWLDLWGQGTLVTVSS VL: DVVMTQTPASVSEPVGGTVTIKCQASQSIGSNLAWYQQKPGQPPKLLIYAASDLASGVPSRFSGSGSGTEFTLTISGVQSDDAATFYCQTYGSGSFSSFNLFGGGTEVVVK | 0.414 µg/mL | 238 RFU | 2.28 abs. corr. | 0.631 abs. corr. | 2.9 abs. corr. | – | – | – | – | –
10 | P018.S.03.A.E03 (antibody, V domains shown, V regions on human Ig constant parts; also called AB134_4) VH: QSVEESGGRLVTPGTPLTLTCTVSGFSLSTYGMSWVRQAPGKGLEWIGIIDAGDSPYYASWVKGRFTISKTSTTVDLKITSLTTEDTATYFCARIAGSNHGPFSLWGPGTLVTVSS VL: DVVMTQTPASVSEPVGGTVTINCQASEFISNYLAWYQQKPGQPPKLLIYGASTLASGVPSRFSGSGSGTQFTLTISDLESDDAATYYCQCTAYGSGYVGFGGGTEVVVK | – | – | – | – | – | 2.54 abs. corr. | 0.314 abs. corr. | 419 RFU | 0.529 µg/mL | 2.72 abs. corr.
11 | P018.S.12.A.G05 (antibody, V domains shown, V regions on human Ig constant parts; also called AB134_87) VH: QSVEESGGRLVTPGTPLTLTCTVSGFSLSTYGMSWVRQAPGKGLEWIGIIDGGDSPYYASWAEGRFTISKTSTTVDLKITSPTTEDTATYFCARIAGSNHGPFDLWGPGTLVTVSS VL: DVVMTQTPASVSEPVGGTVTINCQASEFISNYLAWYQQKPGQPPKLLIYGASTLASGVPSRFKGSGSGTDFTLTISDLESADAATYYCQCTAYGSSYVGFGGGTEVVVK | – | – | – | – | – | 2.19 abs. corr. | 0.13 abs. corr. | 570 RFU | 0.745 µg/mL | 2.04 abs. corr.
12 | P018.S.10.A.F04 (antibody, V domains shown, V regions on human Ig constant parts; also called AB27_180) VH: QSVEESGGRLVTPGTPLTLTCTASGFYLSSHYMSWVRQAPGKGLEWIGIIYATGIASYANWAKGRFTISKTSTTVSLKMTSPTTEDTATYFCARYDSQDYYGYGNLWGPGTLVTVSS VL: AYDMTQTPASVEVAVGGTVTIKCQASQNIYNNLAWYQQKPGQRPKLLIYRASTLASGVSSQFKGSGSGTEYTLTISGVESADAATYYCQQGYSVHDVYNTFGGGTEVVVK | 1.27 µg/mL | 133 RFU | 2.32 abs. corr. | 0.273 abs. corr. | 2.89 abs. corr. | – | – | – | – | –
